This note sets out measurements from publication PMC9927489 (Microbiology Spectrum, 2023).

Like-named read-outs stand apart in the source and are kept apart here.

As usually defined, the Kd is the free concentration of one partner at which half of the binding sites on the other are occupied at equilibrium, for simple one-to-one binding. Read a high Kd as a looser complex. What is called koff is the rate constant with which the complex falls apart. A lower koff goes with a long-lived complex. What is called kon is the rate constant with which the complex forms. Low values mean slow association, high ones fast association.

Test [1] deals with Mycobacterium tuberculosis dUTPase mutant mDut H145F, His-tagged (Mycobacterium tuberculosis (strain H37Rv)) (UniProt P9WNS5). Description: BLI; […] (218.7 nM) […]; 28°C; 1:1 kinetic model. On the technique in general: BLI is a label-free optical method that tracks binding on a fibre tip over time.
The target is the same in test [2]. Put plainly: BLI; […] (218.7 nM) […]; 28°C; 1:1 kinetic model. This is another data set of the same source.

In test [1], “Stl^N-ter (SaPIbov1 Stl, N-terminal DNA-binding domain and middle domain, residues 1 to 156) (domain or fragment)” registered a dissociation constant Kd of 12.5 nM, a koff of 0.00483 s⁻¹ and a kon of 388000 M⁻¹ s⁻¹. In test [2], the equilibrium dissociation constant (Kd) was found to be 12.4 nM.
